These results are taken from patent US20200270125A1 (OMEROS, published 2020).

The chains are these.
T1: human MASP-3 (construct not stated) (human)
T1 construct: also called MASP-3 antigen
T1 chain: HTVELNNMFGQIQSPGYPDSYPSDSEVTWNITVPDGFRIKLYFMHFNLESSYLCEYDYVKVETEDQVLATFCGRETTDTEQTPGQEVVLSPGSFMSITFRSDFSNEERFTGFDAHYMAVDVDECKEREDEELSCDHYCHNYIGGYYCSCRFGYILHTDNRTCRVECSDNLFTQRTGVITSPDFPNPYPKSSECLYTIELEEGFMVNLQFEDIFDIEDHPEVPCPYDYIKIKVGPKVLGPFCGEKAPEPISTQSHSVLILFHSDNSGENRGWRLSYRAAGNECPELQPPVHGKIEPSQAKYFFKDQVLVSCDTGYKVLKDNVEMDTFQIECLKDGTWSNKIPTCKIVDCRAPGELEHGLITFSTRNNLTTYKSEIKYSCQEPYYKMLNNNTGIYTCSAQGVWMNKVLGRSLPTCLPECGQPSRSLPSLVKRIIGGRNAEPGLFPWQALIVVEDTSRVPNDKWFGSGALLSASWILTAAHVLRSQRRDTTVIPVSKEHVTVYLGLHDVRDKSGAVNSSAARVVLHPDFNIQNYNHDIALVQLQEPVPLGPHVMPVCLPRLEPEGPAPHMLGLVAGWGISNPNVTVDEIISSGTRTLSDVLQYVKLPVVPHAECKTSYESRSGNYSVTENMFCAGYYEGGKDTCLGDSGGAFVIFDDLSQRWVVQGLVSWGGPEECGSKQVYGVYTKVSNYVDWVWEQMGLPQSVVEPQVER

T2: recombinant human MASP-1A (S646A, CCP1-CCP2-SP fragment) (human, UniProt P48740 298-699, limits assumed)
T2 chain: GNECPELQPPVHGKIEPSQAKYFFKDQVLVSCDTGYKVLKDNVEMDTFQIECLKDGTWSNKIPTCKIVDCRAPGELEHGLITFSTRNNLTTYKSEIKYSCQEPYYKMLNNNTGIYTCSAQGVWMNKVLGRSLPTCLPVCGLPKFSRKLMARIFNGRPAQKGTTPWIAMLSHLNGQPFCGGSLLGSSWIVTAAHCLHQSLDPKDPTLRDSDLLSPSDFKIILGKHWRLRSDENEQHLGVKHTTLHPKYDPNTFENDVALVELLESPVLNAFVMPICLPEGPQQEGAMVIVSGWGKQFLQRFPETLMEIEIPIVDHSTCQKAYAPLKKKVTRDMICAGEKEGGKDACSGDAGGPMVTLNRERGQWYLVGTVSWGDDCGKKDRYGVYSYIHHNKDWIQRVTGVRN

T3: recombinant full-length mouse MASP-3 (mouse)
T3 construct: Entry is with leader; also called mouse full length MASP-3
T3 chain: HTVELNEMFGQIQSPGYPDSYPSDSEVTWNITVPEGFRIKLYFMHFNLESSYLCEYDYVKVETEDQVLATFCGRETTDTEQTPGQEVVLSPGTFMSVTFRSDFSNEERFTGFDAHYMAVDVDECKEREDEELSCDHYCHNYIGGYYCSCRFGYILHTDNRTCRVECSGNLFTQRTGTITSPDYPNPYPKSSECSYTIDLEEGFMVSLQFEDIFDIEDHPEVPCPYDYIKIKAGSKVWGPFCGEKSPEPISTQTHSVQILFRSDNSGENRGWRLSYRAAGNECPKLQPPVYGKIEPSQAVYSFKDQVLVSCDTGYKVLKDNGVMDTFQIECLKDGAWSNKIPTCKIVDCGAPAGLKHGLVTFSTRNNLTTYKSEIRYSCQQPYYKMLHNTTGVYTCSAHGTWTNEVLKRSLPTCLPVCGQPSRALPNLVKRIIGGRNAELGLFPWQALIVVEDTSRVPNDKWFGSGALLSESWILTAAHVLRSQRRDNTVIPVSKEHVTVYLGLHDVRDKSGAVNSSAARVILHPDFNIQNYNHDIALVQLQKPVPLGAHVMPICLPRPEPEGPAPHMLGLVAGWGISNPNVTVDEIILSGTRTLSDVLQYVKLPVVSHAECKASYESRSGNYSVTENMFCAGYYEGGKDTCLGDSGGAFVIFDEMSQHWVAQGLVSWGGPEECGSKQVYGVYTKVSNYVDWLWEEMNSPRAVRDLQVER

T4: human MASP-3 CCP1-CCP2-SP fragment (human)
T4 construct: limits of the assay construct are not restated; also called rMASP-3 (CCP1-CCP2-SP)
T4 chain: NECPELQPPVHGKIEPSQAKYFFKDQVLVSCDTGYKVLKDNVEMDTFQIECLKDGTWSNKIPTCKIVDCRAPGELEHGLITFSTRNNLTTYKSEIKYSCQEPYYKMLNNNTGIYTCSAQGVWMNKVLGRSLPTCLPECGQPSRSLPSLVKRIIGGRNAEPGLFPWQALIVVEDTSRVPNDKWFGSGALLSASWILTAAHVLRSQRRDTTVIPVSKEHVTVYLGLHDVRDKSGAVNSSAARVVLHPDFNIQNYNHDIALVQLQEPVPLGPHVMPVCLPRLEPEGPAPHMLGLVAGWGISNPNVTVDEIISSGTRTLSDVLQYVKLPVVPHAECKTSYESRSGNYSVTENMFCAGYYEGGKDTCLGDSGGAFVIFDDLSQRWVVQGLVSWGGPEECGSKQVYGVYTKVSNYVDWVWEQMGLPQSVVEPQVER

B1: h10D12-45-21-DA Fab (VH-45 and VL-21-DA) (Fab, V domains shown)
VH: QIQLVQSGSELKKPGASVKVSCKASGYIFTSYGMSWVRQAPGKGLKWMGWINTYSGVPTYADDFKGRFVFSLDTSVRTPYLQISSLKAEDTAVYFCARGGEAMDYWGQGTLVTVSS
VL: DVLMTQTPLSLSVTPGQPASISCKSSQSLLDSAGKTYLNWLLQRPGQSPKRLIYLVSKLDSGVPDRFSGSGSGTDFTLKISRVEAEDVGVYYCWQGTHFPWTFGQGTKVEIKR
notes: also called 10D12-DA mutant
B2: h10D12-45-21-DE Fab (VH-45 and VL-21-DE) (Fab, V domains shown)
VH: B1 VH
VL: B1 VL with A33E
notes: also called 10D12-DE mutant
B3: h10D12-45-21-GA Fab (VH-45 and VL-21-GA) (Fab, V domains shown)
VH: B1 VH
VL: B1 VL with A33D, G34A
notes: Humanized monovalent Fab; also called 10D12-GA mutant
B4: h4D5-19-1-NA Fab (VH-19 and VL-1-NA) (Fab, V domains shown)
VH: QVQLVQSGAEVKKPGASVKVSCKASGYTFTTDDINWVRQAPGQGLEWIGWIYPRDDRTKYNDKFKDRATLTVDTSSNTAYMELSSLRSEDTAVYYCSSLEDTYWGQGTLVTVSS
VL: DIVMTQSPDSLAVSLGERATINCKSSQSLLASRTRKNYLAWYQQKPGQPPKLLIYWASTRESGVPDRFSGSGSGTDFTLTISSLQAEDVAVYYCKQSYNLYTFGQGTKVEIKR
notes: Humanized monovalent Fab; also called 4D5-NA mutant
B5: h4D5-19-1-ST Fab (VH-19 and VL-1-ST) (Fab, V domains shown)
VH: B4 VH
VL: B4 VL with A31N, S32T
notes: also called 4D5-ST mutant
B6: h4D5-19-1-NQ Fab (VH-19 and VL-1-NQ) (Fab, V domains shown)
VH: B4 VH
VL: B4 VL with A31Q
notes: also called 4D5-NQ mutant
B7: MASP-3 mAb 49C11 (mouse-human chimeric IgG4) (antibody, V domains shown)
VH: EVQLQQSGPVLVKPGASGKMSCKASGYKFTDYYMIWVKQSHGKSLEWIGVIKIYNGGTSYNQKFKGKATLTVDKSSSTAYMELNSLTSEDSAVYYCARGPSLYDYDPYWYFDVWGTGTTVTVSS
VL: DVLMTQTPLSLPVSLGDQASFSCRSSQSLIHSNGNTYLHWYLQKPGQSPKLLIYKVSNRFSGVPDRFSGSGSGTDFTLKISRVEAEDLGVYFCSQSTHVPWTFGGGTKLEIKR
B8: MASP-3 mAb 35C1 (mouse-human chimeric IgG4) (antibody, V domains shown)
VH: QIQLVQSGPELKTPGETVKISCKASGYIFTSYGITWVKQAPGKGLKWMGWINTYSGVPTYADDFKGRFAFSLETSASTAYLQINNLKNEDTTTYFCTRGGDALDYWGQGTSVTVSS
VL: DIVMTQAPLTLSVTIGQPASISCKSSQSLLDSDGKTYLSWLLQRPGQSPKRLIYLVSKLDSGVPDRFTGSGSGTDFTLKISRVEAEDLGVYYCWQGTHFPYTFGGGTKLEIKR
B9: MASP-3 mAb 11B6 (mouse-human chimeric IgG4) (antibody, V domains shown)
VH: QVQLKQSGAELVKPGASVKMSCKASGYTFTTYPIEWMKQNHGKSLEWIGNFHPYNGDSKYNEKFKGKATLTVEKSSSTVYLELSRLPSADSAIYYCARRHYAASPWFAHWGQGTLVTVSS
VL: DIVMTQSQKFMSTSVGDRVNVTCKASQNVGPTVAWYQQKPGQSPKALIYSASYRYSGVPDRFTGSGSGTDFTLTISNVHSEDLAEYFCQQYNSYPFTFGSGTKLEIKR
B10: MASP-3 mAb 1B11 (mouse-human chimeric IgG4) (antibody, V domains shown)
VH: QVQLKQSGAELVRPGASVKLSCKASGYTFTDYYINWVKQRPGQGLEWIARIYPGSGNTYYNEKFKGKATLTAEKSSSTAYMQLSSLTSEDSAVYFCARNYYISSPWFAYWGQGTLVTVSS
VL: B9 VL with N20S, T32N, H79Q, E85D, S93R, F96L, S100A, I106L
B11: MASP-3 mAb 15D9 (mouse-human chimeric IgG4) (antibody, V domains shown)
VH: QVQLKQSGTELMKPGASVNLSCKASGYTFTAYWIEWVKQRPGHGLEWIGEILPGSGTTNYNENFKDRATFTADTSSNTAYMQLSSLTSEDSAIYYCARSYYYASRWFAFWGQGTLVTVSS
VL: B9 VL with V15I, N20S, K24R, T32N, V33L, Y55F, H79Q, S93R
B12: MASP-3 mAb 1E7 (mouse-human chimeric IgG4) (antibody, V domains shown)
VH: QVQLKQSGPELARPWASVKISCQAFYTFSRRVHFAIRDTNYWMQWVKQRPGQGLEWIGAIYPGNGDTSYNQKFKGKATLTADKSSSTAYMQLSSLTSEDSAVYYCASGSHYFDYWGQGTTLTVSS
VL: DIQLTQSPAILSVSPGERVSFSCRASQSIGTSIHWYQQRTNGSPRLLIKYASESISGIPSRFSGSGSGTDFTLSINSVESEDIADYYCQQSNSWPYTFGGGTKLEIKR

Positions count from the first letter of the chain named.

In the first assay the target is T1, human MASP-3 (construct not stated). Nature of the assay: ELISA, monovalent Fab. A general note: ELISA stands for enzyme-linked immunosorbent assay.
As a reminder, the EC50 is the concentration needed to bring the measured effect to its halfway point. For the molecule B1, the EC50 was determined as 294 pM.
Turning to B2, the EC50 was found to be 326 pM.
B3 yielded an EC50 of 181 pM.
For B4, the EC50 stood at 122 pM.
The molecule B5 displayed an EC50 of 151 pM.
In the case of B6, the EC50 is 732 pM.

For a further assay, the target named is T2, recombinant human MASP-1A (S646A, …). The experiment in a line: ELISA: recombinant MASP-1A (S646A, CCP1-CCP2-SP) coated directly on the plate, A450. On the procedure: (§1) The plate was then washed (PBS-T, 0.05%) and the candidate MASP-3 antibodies were added followed by incubation for one hour at room temperature. The plate was washed (PBS-T, 0.05%) and a detection antibody was added (mouse anti-human kappa-HRP, SouthernBiotech #9230-05) for one hour at room temperature. After another wash (PBS-T, 0.05%) the plate was developed (5 minutes) with OPT EIA TMB (BD Biosciences #555214). Absorbance reading at A450 was measured using the Spectramax M5e plate reader.
Turning to B7, the binding result is “no binding (tested: about 20 nM (log10 about 1.3))”.
In the case of B8, the binding result is listed as “no binding (tested: about 20 nM (log10 about 1.3))”.
With B9, the binding result is “no binding (tested: about 20 nM (log10 about 1.3))”.
On to B10, for which the binding result is listed as “no binding (tested: about 20 nM (log10 about 1.3))”.
Still for that read-out and setting: the value for B11 was “no binding (tested: about 20 nM (log10 about 1.3))”.

The target in another assay is T3, recombinant full-length mouse MASP-3. The experiment in a line: sandwich ELISA, full-length mouse MASP-3 captured by αM3-259. As to the method:
as §1
For B7, the EC50 turned out to be 64 pM.
B12: the EC50 came out at 117000 pM.
Turning to B8, the EC50 was 209 pM.
Take B9: the EC50 stood at 66 pM.
Take B10: the EC50 is 1100 pM.
Consider B11, for which the half-maximal effective concentration (EC50) was found to be 92 pM.

In another assay the target is T5, recombinant human MASP-2 (CCP1-CCP2-SP fragment) (human, UniProt O00187 298-686, limits assumed).
T5 construct: domain: CCP1-CCP2-SP fragment
T5 sequence (O00187 298-686 limits assumed): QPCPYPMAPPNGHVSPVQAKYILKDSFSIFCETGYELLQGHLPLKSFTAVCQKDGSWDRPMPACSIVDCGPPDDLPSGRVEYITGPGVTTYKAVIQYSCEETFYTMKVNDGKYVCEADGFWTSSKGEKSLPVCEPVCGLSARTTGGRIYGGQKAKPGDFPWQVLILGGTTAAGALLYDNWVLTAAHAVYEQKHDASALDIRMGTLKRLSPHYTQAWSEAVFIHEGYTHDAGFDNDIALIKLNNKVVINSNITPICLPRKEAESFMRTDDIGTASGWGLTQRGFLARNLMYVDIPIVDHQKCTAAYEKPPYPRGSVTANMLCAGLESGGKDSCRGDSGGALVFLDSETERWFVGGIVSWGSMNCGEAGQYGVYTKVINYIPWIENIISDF
Nature of the assay: ELISA: recombinant MASP-2 (CCP1-CCP2-SP) coated directly on the plate, A450. On the procedure: as §1
B7: the binding result was “no binding (tested: about 20 nM (log10 about 1.3))”.
The same measure, in the same setting: in the case of B8 it was “no binding (tested: about 20 nM (log10 about 1.3))”.
As to B9, the binding result is “no binding (tested: about 20 nM (log10 about 1.3))”.
For the molecule B10, the binding result was “no binding (tested: about 20 nM (log10 about 1.3))”.
As to B11, the binding result was “no binding (tested: about 20 nM (log10 about 1.3))”.

The target in a further assay is T4, human MASP-3 CCP1-CCP2-SP fragment. Nature of the assay: sandwich ELISA, MASP-3 CCP1-CCP2-SP captured by αM3-259. On the procedure: as §1
Molecule B7 registered an EC50 of 69 pM.
B12 showed an EC50 of 112 pM.
On the same count and under the same terms, in the case of B8 it was 91 pM; in that of B9, 60 pM; in that of B10, 59 pM.
Same read-out and setting: the value for B11 was 74 pM.

Another assay addresses T1, human MASP-3 (construct not stated). The experiment in a line: not described at this place.
B7 yielded a binding affinity of no more than 500 pM.
In the case of B12, the binding affinity was no more than 500 pM.
B8 gave a binding affinity of no more than 500 pM.
B9 returned a binding affinity of no more than 500 pM.
In turn, B10 gave a binding affinity of no more than 500 pM.
As to B11, the binding affinity is no more than 500 pM.
